Test results published in patent US20220153834A1 (UNIVERSITY HEALTH NETWORK, published 2022).

B1: anti-TSG-6 antibody of SEQ ID NO: 1 and SEQ ID NO: 2 (first entry of Table 1, clone name not printed) (antibody, IgG1, V domains shown)
VH: QVRLQQSGAELAKPGASVKLSCKASGYTFTSYWMHWVKQRPGQGLEWIGYIIPSSGYTKNKQNFKDKATLTADKSSSTAYMQLSNLTYEDSAVYSCARSDGSYPYYFDYWGQGTTLTVSS
VL: ENVLTQSPAIMSASPGEKVTMTCSASSSVSYMHWYQQKSSTSPKLWIYDTSKLASGVPGRFSGSGSGNSYSLTISSMEAEDVATYYCFQGSGYPLTFGSGTKLEIKR
B2: 4E4 (antibody, V domains shown)
VH: QVQLQQPGAELVKPGASVKLSCKASGYTFTSYWMHWVKQRPGQGLEWIGMIHPNSGSTNYNEKFKNKATLTVDKSSSTAYMQLSSLTSEDSAVYYCAPRMFDDYDDYWGQGTTLTVSS
VL: QIVLTQSPAIMSASLGERVTMTCTASSSVSSSYLHWYQQKPGSSPKLWIYSTSNLASGVPVRFSGSGSGTSYSLTISRMEAEDAATYYCHHYHRSPYTFGGGTKLEIKR
notes: Entries as printed include a leader and part of the constant region
B3: 1A9 (antibody, V domains shown)
VH: EVQLQQSGPELVKPGASVKISCKASGYTFTDYYMNWVKQSHEKSLEWIGDINPNNGGTSYNQKFMGKATLTVDKSSRTAYMELRSLTSEDSTVYYCARWGIYDRFTYWGQGTLVSVSA
VL: DIKMTQSPSSMYASLGERVTIACKASQDINSFLSWFQQKPGKSPKTLIYRANRLVDGVPSRFSGSGSGQDYSLTISSLEYEDMGIYYCLQYDEFPLTFGAGTKLELKR
notes: as for B2
B4: 1D7 (antibody, V domains shown)
VH: EVQLQQSGPELVKPGASVKISCKASGYTFTDYYMNWVKQSHGKSLEWIGDINPNNGGTTYNQKFKGKATLTVDKSSSTAYMELRSLTSEDSAVYYCARWGIFDRFTYWGQGTVVTVSA
VL: DIKMTQSPSSMYASRGERVTITCKASQDINSFLSWFQQKPGKSPKTLIYRANRLVDGVPSRFSGSGSGQDYSLTISSLEYEDMGIYYCLQYDEFPLTFGAGTKLELKR
notes: as for B2
B5: 3C6 (antibody, V domains shown)
VH: EVQLQQSGPELVKPGASVKIPCKASGYTFTDYNMDWVKQSHGESLEWIGDIYPNNGGTIYNQKFKDKATLTVDKSSSTAYMELRSLTSEDNAVYYCARKTGTGFDYWGQGTTLTVSS
VL: QIVLSQSPAILSASPGEKVTMTCRARSSVIYMHWYQQKPGSSPKPWIYATFNLASGVPARFSGSGSGTSYSLTISRVEAEDAATYYCQQWSSNPPTFGSGTKLEIKR
notes: Entries as printed include a leader and part of the constant region; also called anti-TSG-6 antibody 3C6
B6: 3E4 (antibody, V domains shown)
VH: QVQLQQPGAELVKPGASVKLSCKASGYTFTSQWMHWVKQRPGQGLEWIGMIHPNSGSTNNNEKFKSKATLTVDKSSSTAYMQLSSLTSEDSAVYYCTRWAMDYWGQGTSVTASS
VL: DVVMTQTPLSLPVSLGDLASISCRSSQSLVHSNGNTYLHWYLQKPGQSPKLLIFKVSNRFSGVPDRFSGSGSGTDFTLKISRVEAEDLGVYFCSQSTHVPWTFGGGTKLEIKR
notes: as for B2
B7: 4F1 (antibody, V domains shown)
VH: EVKLVESGGGLVQPGGSLSLSCAASGFTFTDYYMSWVRQPPGKALEWLGFIRHKAKGYTAEYSASVKGRFTISRDNSQSILYLQMNALRAEDSATYYCARLYYYGSPHWYFDVWGTGTTVTVSS
VL: QIVLTQSPAIMSASPGEKVTMTCSASSSVSYMHWYQQKSGTSPKRWIYDTSKLASGVPARFSGSGSGTSYSLTISSMEAEDAATYYCQQWSSNPPTFGSGTELEIKR
notes: as for B2
B8: 5B4 (antibody, V domains shown)
VH: QVQLQQPGAELVKPGASVKLSCKASDYTFTNYWMHWVKQRPGRGLEWIGRIDPSSGGAKYNEKFKSKATLTVDKPSSTAYMEFSSLTSEDSAVYYCVRSRYDYDGWFAYWGLGTLVTVSA
VL: DIVMTQAAPSVPVTPGESVSISCRSSKSLLHSNGNTYLYWFLQRPGQSPQLLIYRMSNLASGVPDRFSGSGSGTAFTLRISRVEAEDVGVYYCMQHLEYPFTFGGGTKLEIKR
notes: Its printed constant part differs from that of the other IgG1 entries; Entries as printed include a leader and part of the constant region
B9: 5D9 (antibody, V domains shown)
VH: QVQLQQSGAELARPGASVKLSCKASDDTFINYGINWVKQRTGQGLEWIGETFPSNGNTFYNEKFKGKATLTADRSSSTTYMELRSLTSEDAAVYFCARHSNLPYFDHWGQGSTLTVSS
VL: DIVMTQSPSSLSVSAGEKVTMSCKSSQSLLNSGNQKNYLAWYQQKPGQPPKLLIYGASTRESGVPERFTGSGSGTDFTLTISSVQAEDLAVYYCQNDHSYPFTFGGGTNLEIKR
notes: as for B2
B10: 3E1 (antibody, V domains shown)
VH: QVQLQQSGAELAKPGASVRLSCQASGYTFTSYWMHWVKQRPRQGLEWIGYIIPSSGYTKCHQKFKDKATLTADKSSSTAYMQLSSLTYEDSAVYYCARSTSGYPYYFDSWGQGTTLTVSS
VL: ENVLTQSPAIMSASPGERVTMTCSATSSVSFMHWYQQKSSTSPKLWIYDTSKLASGVPGRFSGSGSGNSYSLTISSMEAEDVATYYCFQGSWYPLTFGAGTKLELKR
notes: as for B2
B11: 5A5 (antibody, V domains shown)
VH: QVQLQQSGAELAKPGASVRLSCQASGYTFTTYWMHWVKQRPRQGLEWIGYIIPSSGYSKCHQKFKDKATLTADKSSNTASMQLSSLTYEDSAVYYCARSTSGYPYYFDYWGQGTTLTVSS
VL: ENVLTQSPAIMSASPGEKVTMTCSATSSVSYMHWYQQKSSTSPKLWIYDTSKLASGVPGRFSGSGSGNSYSLTISSMEAEDVATYYCFQGSWYPLTFGAGTKLELKR
notes: as for B2

How the values were obtained:
[1] = molecular target: T1, Recombinant human TSG-6 (R&D Biosystems, catalog #2104-TS) (human, UniProt P98066 18-277); test: ELISA of hybridoma supernatants on recombinant human TSG-6
T1 construct: Bought protein; also called hTSG-6; Tumor necrosis factor-inducible gene 6 protein
T1 sequence (P98066 18-277 limits assumed): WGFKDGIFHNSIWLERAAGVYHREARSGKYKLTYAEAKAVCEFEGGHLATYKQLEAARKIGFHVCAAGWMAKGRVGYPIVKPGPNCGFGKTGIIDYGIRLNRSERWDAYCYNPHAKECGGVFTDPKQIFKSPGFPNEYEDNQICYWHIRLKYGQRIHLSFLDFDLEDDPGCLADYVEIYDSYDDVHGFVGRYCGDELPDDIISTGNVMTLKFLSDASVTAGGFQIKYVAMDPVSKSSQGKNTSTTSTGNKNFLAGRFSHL
Experimental: (§1) Mouse antibodies directed against mouse TSG-6 protein (mTSG-6) were generated using conventional mouse monoclonal antibody techniques. Briefly, mice (strain SJL/J) were inoculated with KLH-coupled recombinant mouse TSG-6 (R&D Biosystems, catalog #2326-TS). After boosting, antibody titers were determined by ELISA, using a non-relevant His6-tagged protein as a control. Mice selected for fusion were sacrificed and hybridoma fusion was performed using the P3X63Ag8.653 murine myeloma cell line as a fusion partner. Clones were isolated by limiting dilution and selected by ELISA of hybridoma supernatants. Recombinant human TSG-6 (R&D Biosystems, catalog #2104-TS) was used as a substrate for ELISA assays thus facilitating the selection of human- and mouse-cross reactive clones (the two proteins are 92% identical at the amino acid level). Hybridoma mRNA was transcribed to cDNA and amplified by 5′-rapid amplification of cDNA ends (RACE). PCR products were cloned into an appropriate sequencing vector and sequenced by the dideoxy Sanger method. Multiple copies were sequenced to verify the clonality of each clone. Translated protein sequences were entered into the NCBI IgBLAST search tool (Ye, J., et al., 2013, Nucleic Acids Res. 41, W34-40) to identify CDRs.

[2] = molecular target: T2, Recombinant mouse TSG-6 (R&D Biosystems, catalog #2326-TS) (mouse, UniProt O08859 18-275); test: hybridoma raised against mouse TSG-6; clone selection by ELISA
T2 construct: Bought protein, used KLH-coupled as the immunogen; also called mTSG-6
T2 sequence (O08859 18-275 limits assumed): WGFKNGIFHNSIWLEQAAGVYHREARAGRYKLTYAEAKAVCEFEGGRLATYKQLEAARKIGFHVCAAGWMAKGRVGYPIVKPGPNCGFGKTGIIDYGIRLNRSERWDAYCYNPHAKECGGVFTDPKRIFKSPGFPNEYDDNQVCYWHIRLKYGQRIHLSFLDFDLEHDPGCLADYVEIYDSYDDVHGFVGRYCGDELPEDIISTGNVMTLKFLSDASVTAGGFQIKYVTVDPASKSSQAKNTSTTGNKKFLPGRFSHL
Experimental: as §1

| Binder | binding result [1] | binding result [2] |
| --- | --- | --- |
| B1 | binds | binds |
| B2 | binds | binds |
| B3 | binds | binds |
| B4 | binds | binds |
| B5 | binds | binds |
| B6 | binds | binds |
| B7 | binds | binds |
| B8 | binds | binds |
| B9 | binds | binds |
| B10 | binds | binds |
| B11 | binds | binds |
